Measured values: patent US20250034594A1, “RNA-GUIDED GENOME RECOMBINEERING AT KILOBASE SCALE” (THE BOARD OF TRUSTEES OF THE LELAND STANFORD JUNIOR …, priority 2021, published 2025)

Legend:
Type in all cases: cell-based
[1] = system: gene editing with Cas9 and dCas9; test: Screen of 322 new SSAP proteins, activity across all experiments (Cas9 and dCas9, Table 5); set-up: scale not given here
Summary of the method: (§1)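 Sequence-mined SSAPs (n=322), synthesized; editing activity screened with Cas9 or dCas9.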

[2] = system: gene editing with Cas9; test: Screen of 322 new SSAP proteins, gene editing activity with Cas9 (Table 5); set-up: Cas9 with SSAP activity: scale not given here
Summary of the method: as §1

[3] = system: gene editing with dCas9; test: Screen of 322 new SSAP proteins, gene editing activity with dCas9 (Table 5); set-up: dCas9 with SSAP activity: scale not given here
Summary of the method: as §1

| Molecule | Activity across all experiments [1] | Cas9 with SSAP activity [2] | Cas9 with SSAP activity (normalized) [2] | dCas9 with SSAP activity [3] | dCas9 with SSAP activity (normalized) [3] |
| --- | --- | --- | --- | --- | --- |
| SSAP_304: SEQ ID NO: 473; Desulfobacteraceae bacterium (protein, listed as Desulfobacteraceae bacterium) ATPNTPTTTDAGDFLKKSEKSLKNYAVRKYDFTSFLKSAMIAINDNTTLSECLRTEAGKKSLFNAMRYAATTGLSLNPQEGKAALIGYKNKAGEMVLNYQIMKNGLIDLALSSGKVEFVTADLVRANDEFSIKKSASGDDYSFSPAIRDRGEVIGFVAALKLKGSATYVKWMSTEEVAEFRDKYSSMYKNRPDASPWTHSFNGMGIKTVMKALLRSVSISPDVDAAVKSDDYIEAEFTVHGTTADDAVTQLQTPSKPVKAEEGQGELL | −4.262 | −2.690 | −0.447 | −5.835 | −0.886 |
| SSAP_228: SEQ ID NO: 397; Weissella koreensis (protein, listed as Weissella koreensis) ANELVKQLKSEKVAAQFETTAGKNAAAFASEVAISVMGNKALENASLSSVVVEATKASALGLSLLPTVGEAYLVPYKGQAQFQLGYKGLVQLAMRSGQMKSFGTVKVYEGEHPRWDKYSQELHTDGDETGEVVGYYAQFTLINGFKKADYWTKSAVEEHRSRFSKSKSGPWSTDFDAMAQKTVLKSILQYAPKSSEMTRAMASEDMNGDISEGTAKPIDITPETETPKVEEANQNQQIDTNEMVDEIKEYAKETNEAPKEQTVSAADEFFK | −5.195 | −4.425 | −0.688 | −5.964 | −1.008 |
| SSAP_52: SEQ ID NO: 221 (protein) TIMDLLNDPKMKSQIQRALPNGMSAERIARIALTALRMNPQLQECSPQSFAAALMTSAQLGLEPNTPLGHAWLIPRKNHGKMEVQFELGYKGMLDLVRRSGMITAIFAEEVREKDEFEFEYGTNPYLKHKPYLGGDRGKVLFYYAVATFKDGGYAFKVMSIPEIEEARKLSQSANSPYSPWNRFYDEMAKKTVLKRLCKYLPLSIEVQRNLAQDETIRTQIEADDILDLPNENEFEVVEVEEIPGEEEKEEAKEGPFPNKALRESPTPLT | −0.190 | −0.544 | −0.573 | 0.163 | 0.148 |
| SSAP_188: SEQ ID NO: 357; Propionibacterium freudenreichii (protein, listed as Propionibacterium freudenreichii) TQQMPIKAQGEPTKELQQKAAVDRFNATLHQMQNEIARALPKHMTGDRFVRIVLTEVRKNPTLALCDPLTMFGSLLTAAALGLEPGLNGECWLVPRKNHGTLEAQLQVGYRGVVKLFWQNPAATYLDTGYVCERDEFRFAKGLNPILEHTPAEGDRGKVVRYYAVAGLNTGARVFDVFTPAQIKTLRGGKVGSNGDIPDPEHWMERKTALLQVLKLMPKSTQLAAVPAADGRAHTISDAQQIFGGVDPTTGEVLDAEPVEDGAA | −6.118 | −6.279 | −0.994 | −5.957 | −0.867 |
| SSAP_300: SEQ ID NO: 469; Lactobacillus sp. (protein, listed as Lactobacillus sp.) NSLSGALNSRNQAGSPTSMIKNLMRSDSIKNRFDEVMGAKAPQFMASITNLVNSNQDLQHVDAMSVVASAMVAATLDLPIDPNLGYMYIVPYRGQAQPQMGYKGYIQLALRTGQYKHINALPVYDDEVKSWNPLTEELEYESSGTSHDNQTPAGYVGYFQLINGFEKTTYWTYDQINSHRQKFSKMSSKTDPTGVWKSNFDAMALKTVLRNLISKWGIMSIEMQQAFVKDERPQEFDHETGEIQDVQEVEAEEENVAPETQGSTDKKEE | −5.191 | −4.466 | −0.701 | −5.916 | −1.175 |
| SSAP_166: SEQ ID NO: 335; Blautia sp. OF03-15BH (protein, listed as Blautia sp.) NVKEELAQKAEITQKEVKLKKSMSISDMIRALQPEIKKALPSVVTPERFIRMALSALNTTPKLAECSQISVLAALMNAAQLGLEPNTPMGQAYLIPFNNKGKMECQFQIGYKGLLELVYRNPAIQIIQAQTVYENDYFEYELGLNSRLIHRPELEDRGEIRLFYGLFKMVNGGYGFEVMSRQEMDQYAARYSKSFASGFSPWENNYEDMAKKTMIKRVLKYAPVKIETARALINDESIKLHLSEDMSEVENETVVDGQAEEKAA | −3.593 | −1.338 | −0.432 | −5.849 | −0.934 |
| SSAP_294: SEQ ID NO: 463; Parageobacillus thermoglucosidasius (protein, listed as Parageobacillus thermoglucosidasius) AKQADLKNKLANKNSTNPTAYLKNLVYAPTVQQKFKEVLKEKAAHFLTSLISLVDSSPDLQKCNPMTIIASAMKAATLELPIDKNLGYAWIVPYKNVATFQIGYKGYIQLALRTGLYRSINVIEVYEGELRKWNRLTEELDIDEGARKSDHVIGYAGYFELTNGFIKRVYWSKEDIERHRKKFAKSDFGWENNYDAMAKKTVLRNMLSKWGILSIDMQRAYVNDIDDPEQTKEVIDVEWSEIIEEANVANSPEQQEIVFEQ | −6.515 | −7.102 | −2.102 | −5.929 | −1.096 |
| SSAP_125: SEQ ID NO: 294; Lysinibacillus fusiformis (protein, listed as Lysinibacillus fusiformis) ATTNELKAKSQNQVQQNVTPEQSLNTLLKRMGPQIQRALPKHMDADRIARIALTAVRATPKLLECDQMSFVAALMQSAQLGVEPNTGLGQAYLIPYGKQVQFQLGYKGLIDLAVRSGQYKAIYAHEVYKEDEFSFAYGLHKDLVHVPSTNPEGEPIGYYAVYHLKNGGYDFVYWTRERIDKHAHEFSQAVKKGWTSPWKTNYDAMAKKTVLKEVLKYAPKSIELQKVVEADETIKTEVSEDMSDVIDVTDYSVIEDESAQEELIIEQ | −4.043 | −1.981 | −0.329 | −6.106 | −1.313 |
| SSAP_167: SEQ ID NO: 336; Ruminococcus sp. (protein, listed as Ruminococcus sp.) GTSIQKNVENNALQKEKMPTMQAYIKKMEGEIKKALPSVMTPERFTRITLSALSTNPKLAATTPGSFLGAMMTAAQLGLEPNTPLGQAYLIPYSNKGKLECQFQIGYKGLIDLAYRSGSISVIQAHTVYENDDFEYELGLDPKLKHIPSKSADKGNPAWFYAVFKTKDGGYGFEVMSIEDIRSHAAKYSQSYNSAYSPWKTNFEEMAKKTVLKKALKYAPLKSDFVRQISTDETIKTKLSDDMFSVPAETIEVEGIEVDTETGEITEVDHA | −3.703 | −1.337 | −0.698 | −6.070 | −0.834 |
| SSAP_112: SEQ ID NO: 281; Bacillus sp. UNC322MFChir4.1 (protein, listed as Bacillus sp.) ATNKDVKNQLANRKENKPATPEQKVEAYMTAMAPRFAEVLPKHMSMDRMSRIALTTIRTNPKLLECSVPSLMGAVMQAVQLGLEPGLLGHCYILPYKSEATFIIGYKGMIDLARRSGHIQSIYAHAVYENDEFDYELGLHPKLTHKPSFGERGEFIGAYAVAHFKDGGHQMEFMPKSEIEKRRSRSASGNSSYSPWKSDYEEMAKKTVVRYMFKYLPISIEVQSQAQHDEVVRKDITEEPEFIEMDSIEVAEASEGDGQKEFVIEE | −3.533 | −1.038 | −0.628 | −6.027 | −0.986 |
| SSAP_243: SEQ ID NO: 412; Nocardia puris (protein, listed as Nocardia puris) AESISSEVARQASPLAVVARYRSELAGSLPAAVRHDVDRWLMVAEMAVRRSPDLMEIVRRDQGASLMRALIECARLGHEPGSPEFYLIPRGGIVSGEESYRGIIKRILNSGEYQRVVARVVHERDRFSFDPRIDEIPDHRPAEGERGAPARAYAFAVRWDGTPSTVGEATPERIIAAKAKARGVDRKDSPWNSPTGVMYRKTAIRELASYVHTSAEPRPRPAAPTEPPAVDEVSTVYDAEVIDEVDVLDITAEPTA | −3.650 | −1.310 | −0.511 | −5.989 | −1.036 |
| SSAP_306: SEQ ID NO: 475; Paenibacillus gorillae (protein, listed as Paenibacillus gorillae) LEAKHDALPSGFNAVRFVQNCKAYLPEVRNFERFNPDEIALQFLKGAILGLDFLAKECHVITEGSAARFQTDYKGEMKLAMKHSVRPLLNIYAKNVREGDVFRESVVEGRPVVSFDPLPFNNSKIIGSFAVAQFNDGGMDYESMSSTEIESIRTHYGKNPGSDTWEKSQGEMYKRTALRRLCKTIEIDFDAEQRLAFDAGSSFEFNREPRPQQQSPLNLESEVLTDEVEQG | −4.408 | −2.932 | −2.350 | −5.884 | −0.905 |
